{"source": "patent US9803013B2", "about": "“Biological materials and uses thereof” (BioInvent International AB, priority 2005, dated 2017)", "molecules": {"B1": {"name": "B11: fully human IgG1 antibody specific for ICAM-1; VH and VL sequences of FIG. 10 (SEQ ID NOs. 6 and 8) (antibody, listed as Homo sapiens, V domains shown)", "VH": "EVQLLESGGGLVQPGGSLRLSCAASGFTFSNAWMSWVRQAPGKGLEWVAFIWYDGSNKYYADSVKGRFTISRDNSKNTLYLQMNSLRAEDTAVYYCARYSGWYFDYWGQGTLVTVSS", "VL": "QSVLTQPPSASGTPGQRVTISCTGSSSNIGAGYDVHWYQQLPGTAPKLLIYDNNNRPSGVPDRFSGSKSGTSASLAISGLRSEDEADYYCQSYDSSLSAWLFGGGTKLTVLG"}}, "key": {"[1]": {"tested_on": "panel of ICAM-1-expressing tumor cell lines", "assay": "CDC", "assay_type": "cell-based", "conditions": "human serum", "method": "Target cells were harvested as described above (under ADCC heading) and incubated with antibodies at 5 μg/mL for 60 min on ice and then washed. Human serum, normal or heat-inactivated (Sigma, Sweden), was added to tubes and the samples were incubated for 2 hr at 37° C. After completion of incubation, ToPo-Pro-3 (Invitrogen) was added at a final concentration of 0.3 μM and cells were analyzed for membrane permeabilization using flow cytometry."}, "[2]": {"tested_on": "endothelial cells (HUVEC, HMVEC)", "assay": "HUVEC and HMVEC apoptosis assay", "assay_type": "cell-based", "method": "(FIG. 23G) Antibody-induced endothelial cell apoptosis. HUVEC or HMVEC endothelial cells were incubated with paclitaxel (positive control), BI-505 or isotype control IgG in the presence or absence of cross-linking mAb. Apoptosis was measured by flow-cytometry following staining of cells with Annexin V-AF488.\nBased on BI-505's documented ability to confer Fc:FcγR-dependent antitumor activity in malignant B cells, and a proposed general negative role for complement activation with regard to antibody tolerability (Lim et al.; van der Kolk et al., 2001), direct cytotoxic effects (PCD, ADCC, and CDC) of BI-505 in ICAM-1-expressing human peripheral blood B cells and endothelial cells were examined.\nHUVEC (Cascade Biologics, pool of donors) and HMVEC (Cascade Biologics) were plated in 6-well plates (80 000-120 000 cells/well) in the presence or absence of 200 U/mL IFNγ, in order to induce ICAM-1 expression. Media was changed the day before apoptosis-induction experiments were performed and titrated concentrations of BI-505, enlimomab or isotype control antibody were added to the cells, in the presence or absence of cross-linking Fab (ab′)2 (same as the B-cell protocol). […] Necrotic cells were identified by increased fluorescence in the FL-4 channel and apoptotic cells by increased signal in the FL-1 channel on a flow cytometer (FACSCalibur, BD Bioscience)."}, "RPMI-8226": {"tested_on": "RPMI-8226", "assay": "SCID/xenograft MM model, subcutaneous", "assay_type": "in vivo, mouse", "conditions": "RPMI-8226 (ICAM-1+), 2 mg/kg twice weekly from one day after tumor cell injection", "method": "(§1) Since high expression of the BI-505 epitope in human MM was found, BI-505 was screened for in vivo anti-myeloma activity using SCID/xenograft models comprising four well-characterized MM cell-lines. […] Twice weekly dosing with 2 mg/kg of BI-505 starting one day after tumor cell injection reduced myeloma tumor growth in mice xenografted with ICAM-1-expressing cell lines EJM, RPMI-8226, and NCI-H929 by 98%, 96%, and 99%, respectively (FIGS. 17A and B).\n(§2) All studies were conducted in accordance with guidelines of the Lund University Hospital, Sweden or University of Utah, Salt Lake City, USA following approval from the local ethical committee for animal care and use. BI-505 efficacy and potency was examined in subcutaneous and disseminated, prophylactic and therapeutic, experimental MM models comprising myeloma cell lines RPMI-8226, U266, EJM and OPM-2. The in vivo efficacy of BI-505 was compared to clinically approved drugs dexamethasone, melphalan, bortezomib and revlimid used at clinically relevant doses in therapeutic disseminated models comprising RPMI-8226 or primary patient myeloma cells, the latter following injection of patient cells in implanted of human fetal bone in SCID mice. For subcutaneous grafting, 1-5×10^6 tumor cells (RPMI-8226, NCI-H929, EJM, OPM-2, ARH-77, or Daudi) were subcutaneously injected at a volume of 100 μl into the left flank of anesthetized mice as described in the Supplemental Information. […] Treatment with saline, isotype control IgG, bortezomib, lenalidomide, dexamethasone, or BI-505 started on day 5 (RPMI-8226). Treatment with melphalan started on day 10. BI-505 or isotype IgG mAb was administered i.v. at 2 mg/kg/inj twice weekly for 8 weeks; bortezomib at 1 mg/kg/inj once weekly for 8 weeks; lenalidomide orally at 2 mg/kg/inj for 2 cycles consisting of 5 days of treatment and 2 days of wash out; melphalan i.v. at 3 mg/kg/inj once weekly for 8 weeks; and dexamethasone at 6 mg/kg/inj three times weekly for 2 weeks. […] The role of macrophages and NK cells for BI-505 in vivo antitumor activity was assessed using anti-asialo antibody treatment, clodronate liposome treatment or NK-cell deficient mice. […]\n(§3) Treatment with antibodies by intraperitoneal injection started either 1 day after cell inoculation (prophylactic model) or when tumors reached approximately 100 mm^3 (established model). […] Macrophage and NK cell depletion was assessed upon termination of tumor bearing mice exposed to effector cell depleting agents (see above), spleens were removed and splenocytes isolated by mincing through a cell strainer (70 μm nylon mesh, BD Falcon 352350), erythrocytes were removed by lysis according to manufacturer (BD Pharm Lyse 555899, BD Biosciences)."}, "OPM-2": {"tested_on": "OPM-2", "assay": "SCID/xenograft MM model, subcutaneous", "assay_type": "in vivo, mouse", "conditions": "ICAM-1-negative OPM-2, 2 mg/kg twice weekly", "method": "as §1, §2, §3"}, "NCI-H929": {"tested_on": "NCI-H929", "assay": "SCID/xenograft MM model, subcutaneous", "assay_type": "in vivo, mouse", "conditions": "NCI-H929 (ICAM-1+), 2 mg/kg twice weekly from one day after tumor cell injection", "method": "as §1, §2, §3"}, "EJM": {"tested_on": "EJM", "assay": "SCID/xenograft MM model, subcutaneous", "assay_type": "in vivo, mouse", "conditions": "EJM (ICAM-1+), 2 mg/kg twice weekly from one day after tumor cell injection", "method": "as §1, §2, §3"}}}
{"molecule": "B1", "values": [{"measurement": "CDC", "setting": "[1]", "result": "did not induce CDC"}, {"measurement": "cell death in normal cells", "setting": "[2]", "result": "did not induce cell death"}, {"measurement": "reduction of myeloma tumor growth", "setting": "RPMI-8226", "result": 96, "unit": "%"}, {"measurement": "tumor growth", "setting": "OPM-2", "result": "did not affect tumor growth"}, {"measurement": "reduction of myeloma tumor growth", "setting": "NCI-H929", "result": 99, "unit": "%"}, {"measurement": "reduction of myeloma tumor growth", "setting": "EJM", "result": 98, "unit": "%"}]}
